Source: the supplement of paper PMC9170038

System: MS2 coat protein
Assay: apparent KD of MS2 coat protein; designed switch direction (-1 OFF switch, 1 ON switch): 1; higher = weaker reporter binding
In short: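 SNAP-549-labelled MS2 coat protein was titrated, doubling from 0.7 or 1.5 nM to 3 µM, over designed RNA switches transcribed on Illumina chips by stalled E. coli RNA polymerase. Runs were done without input, with 200 uM small-molecule ligand, or with an oligonucleotide input. Apparent KD is the per-design median over clusters of curve-fitted normalised fluorescence.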

[1] = input ligand: microRNA oligo, concentration not stated
[2] = Eterna round: R95, input ligand: FMN 200 uM
[3] = Eterna round: R95, input ligand: microRNA oligo, concentration not stated
[4] = Eterna round: R95, input ligand: none

Sequence: AGCGUCCACACAGGAUAUCACCUGCACUACAGGUGAGAAGGGUGACCGGUGCGCAAUAACGACAUGAGGAUCACCCAUGUAAAA [Enraquleer] (Eterna round: R96, puzzle: Same State NG 1)
- apparent KD of MS2 coat protein (input ligand: FMN 200 uM): 334 nM
- apparent KD of MS2 coat protein [1]: 93.2 nM
- apparent KD of MS2 coat protein (input ligand: none): 384 nM

Sequence: AGCUAGUACCGAGGAUAUACGUACAUGAGGAUCACCCAUGUAUACAUGGUUUAAUGAAACUACAUGUAGAAGGCGGUACUAGCA [Mat - Same State NG 2 - JL mod - D51] (Eterna round: R96, puzzle: Same State NG 2)
- apparent KD of MS2 coat protein (input ligand: FMN 200 uM): 23.2 nM
- apparent KD of MS2 coat protein [1]: 157 nM
- apparent KD of MS2 coat protein (input ligand: none): 348 nM

Sequence: AGCUAUCGAAAACGAUAGCAAAAGUAUGUACAUGAGGAUCACCCAUGUCAUGUACAAGCUUUUUGCUCGUCUUAAAA [Zipper 23 - 10] (puzzle: Sensor for hsa-mir-208a)
- apparent KD of MS2 coat protein [2]: 664 nM
- apparent KD of MS2 coat protein [3]: 19.6 nM
- apparent KD of MS2 coat protein [4]: 638 nM

Sequence: AGCUAUCGCGUACGAUAGCUGAAGCAUGUACAUGAGGAUCACCCAUGUCAUGUACAAGCUUUUUGCUCGUCUUAUUG [JL-shm-2.26 JL mod] (puzzle: Sensor for hsa-mir-208a)
- apparent KD of MS2 coat protein [2]: 341 nM
- apparent KD of MS2 coat protein [3]: 14.2 nM
- apparent KD of MS2 coat protein [4]: 347 nM

Sequence: AGCUAUUAAUCAGGAUAUGGUCACAUGAGGAUCACCCAUGUAUAGAUGAUAAAAUGUGGUCAAUACUAGAAGGGAUUGCUAACA [SameState NG2 #63] (Eterna round: R96, puzzle: Same State NG 2)
- apparent KD of MS2 coat protein (input ligand: FMN 200 uM): 433 nM
- apparent KD of MS2 coat protein [1]: 266 nM
- apparent KD of MS2 coat protein (input ligand: none): 386 nM

Sequence: AGCUAUUAAUCAGGAUAUGGUCACAUGAGGAUCACCCAUGUAUAGAUGAUUAAAUGUGGUCUAAACUAGAAGGGAUUGCUAACA [SameState NG2 #56] (Eterna round: R96, puzzle: Same State NG 2)
- apparent KD of MS2 coat protein (input ligand: FMN 200 uM): 414 nM
- apparent KD of MS2 coat protein [1]: 523 nM
- apparent KD of MS2 coat protein (input ligand: none): 421 nM

Sequence: AGCUUGUGGGUAGGAUAUUUAGGAUAUGCGGAAGACUAAGUCUGUAGGUCACCUAACGCAGAAGGAGAGAAGGACCCUUCAGCA [pwkr ssNG2 2FMN + F9.30] (Eterna round: R96, puzzle: Same State NG 2)
- apparent KD of MS2 coat protein (input ligand: FMN 200 uM): 353 nM
- apparent KD of MS2 coat protein [1]: 21.1 nM
- apparent KD of MS2 coat protein (input ligand: none): 91.3 nM

Sequence: AGGAAGGAGGCUGAGGAUAUCGUAAGGAGGACAUGAGGAUCACCCAUGUGUAUAGGAUUGGAGGACGAGAAGGCAGAGGAGUGGG [JR_SS2_Sub049] (puzzle: Same State 2)
- apparent KD of MS2 coat protein [2]: 49.8 nM
- apparent KD of MS2 coat protein [3]: 25 nM
- apparent KD of MS2 coat protein [4]: 29.4 nM

Sequence: AGGGAGGAUGCAGGAUAUAUAAGACAUGAGGAUCACCCAUGUACCUCGUGGAGAAGAAAGGAGAGAUAGAAGGGUAGAGAGGAA [Default title] (Eterna round: R96, puzzle: Same State NG 2)
- apparent KD of MS2 coat protein (input ligand: FMN 200 uM): 314 nM
- apparent KD of MS2 coat protein [1]: 288 nM
- apparent KD of MS2 coat protein (input ligand: none): 255 nM

Sequence: AGUAAGAGUCAAGGAUAUGCUACCGUUUCGGUAGCAGAAGGUGAUCACAUGAGGAUCACCCAUGUAUAAAUGCGUGAGCGUGCU [JL SSNG1 3.63] (Eterna round: R96, puzzle: Same State NG 1)
- apparent KD of MS2 coat protein (input ligand: FMN 200 uM): 679 nM
- apparent KD of MS2 coat protein [1]: 28.2 nM
- apparent KD of MS2 coat protein (input ligand: none): 59 nM

Sequence: AGUAGUGUAACAUGAGGAUCACCCAUGUAAGUAGAUGUAACCUAGGAUAUGGAUGAUAUGUUAGUCCAGAAGGAGGAUUGAAUA [JR_SSNG3_Sub037] (Eterna round: R96, puzzle: Same State NG 3)
- apparent KD of MS2 coat protein (input ligand: FMN 200 uM): 15.5 nM
- apparent KD of MS2 coat protein [1]: 20.6 nM
- apparent KD of MS2 coat protein (input ligand: none): 44.4 nM

Sequence: AGUCCAGCAUGAGCUGGACAAAAGCAUGUACAUGAGGAUCACCCAUGUUCAUGUACAAGCUUUUUGCUCGUCAAAAG [Mat - hsa-mir-208a - Mod of JL - 70] (puzzle: Sensor for hsa-mir-208a)
- apparent KD of MS2 coat protein [2]: 225 nM
- apparent KD of MS2 coat protein [3]: 19.6 nM
- apparent KD of MS2 coat protein [4]: 320 nM
